Laboratory results as given in FireProtDB (doi:10.1074/jbc.271.51.32729).

B1: Ribonuclease HI, P0A7Y4 (parent)
chain: MLKQVEIFTDGSCLGNPGPGGYGAILRYRGREKTFSAGYTRTTNNRMELMAAIVALEALKEHCEVILSTDSQYVRQGITQWIHNWKKRGWKTADKKPVKNVDLWQRLDAALGQHQIKWEWVKGHAGHPENERCDELARAAAMNPTLEDTGYQVEV

Variants of: B1
Settings: Escherichia coli (strain K12), Thermal, CD, reversible: yes, structure 2RN2, whole UniProt chain shown
[1] = pH 9, 47 °C, glycine-NaOH 50 mM

| Variant | ddG of mutation (higher = less stable) (pH 3, 50 °C, glycine-HCl 10 mM) [kcal/mol] | Tm (pH 3, glycine-HCl 10 mM) [°C] | change of melting temperature, mutant - wild type (higher = more stable) (pH 3, glycine-HCl 10 mM) [°C] | unfolding enthalpy (van 't Hoff) (pH 3, glycine-HCl 10 mM) [kcal/mol] | ddG of mutation (higher = less stable) [1] [kcal/mol] | Tm (pH 9, glycine-NaOH 50 mM) [°C] | change of melting temperature, mutant - wild type (higher = more stable) (pH 9, glycine-NaOH 50 mM) [°C] |
| --- | --- | --- | --- | --- | --- | --- | --- |
| E48A | 0.1 | 49.8 | -0.2 | 91.6 | 0.3 | 46 | -1 |
| E48Q | 0.1 | 49.8 | -0.2 | 99.1 | – | 48 | 1 |
| E48D | -0.2 | 50.8 | 0.8 | 103 | 0.2 | 46.2 | -0.8 |
| D10N | 0.7 | 47.4 | -2.6 | 90.5 | -2 | 53.8 | 6.8 |
| D10E | -1.1 | 53.8 | 3.8 | 97.7 | -1 | 50.4 | 3.4 |
| D10H | -0.4 | 51.5 | 1.5 | 115 | -2.4 | – | – |
| D10S | -0.7 | 52.4 | 2.4 | 121 | -2.7 | 56.2 | 9.2 |
| D10A | -2.4 | 58.1 | 8.1 | 105 | – | – | – |
| D70A | 0.1 | 49.7 | -0.3 | 85.5 | -1.1 | 50.8 | 3.8 |
| D70E | -0.5 | 51.8 | 1.8 | 90.4 | -0.1 | – | – |
| D70N | 0.3 | 48.8 | -1.2 | 110 | – | 52.5 | 5.5 |
| D134N | 0.1 | 49.7 | -0.3 | 110 | -1.8 | 53.4 | 6.4 |
| D134A | -0.8 | 52.9 | 2.9 | 105 | -2 | – | – |
